Reference: IntAct's records for PubMed 37595036

B1: CDK5 regulatory subunit-associated protein 3 (Homo sapiens), Q96JB5 (parent)
chain: MEDHQHVPIDIQTSKLLDWLVDRRHCSLKWQSLVLTIREKINAAIQDMPESEEIAQLLSGSYIHYFHCLRILDLLKGTEASTKNIFGRYSSQRMKDWQEIIALYEKDNTYLVELSSLLVRNVNYEIPSLKKQIAKCQQLQQEYSRKEEECQAGAAEMREQFYHSCKQYGITGENVRGELLALVKDLPSQLAEIGAAAQQSLGEAIDVYQASVGFVCESPTEQVLPMLRFVQKRGNSTVYEWRTGTEPSVVERPHLEELPEQVAEDAIDWGDFGVEAVSEGTDSGISAEAAGIDWGIFPESDSKDPGGDGIDWGDDAVALQITVLEAGTQAPEGVARGPDALTLLEYTETRNQFLDELMELEIFLAQRAVELSEEADVLSVSQFQLAPAILQGQTKEKMVTMVSVLEDLIGKLTSLQLQHLFMILASPRYVDRVTEFLQQKLKQSQLLALKKELMVQKQQEALEEQAALEPKLDLLLEKTKELQKLIEADISKRYSGRPVNLMGTSL

Variants of: B1
Conditions: with ufc1_human UFC1, Q9Y3C8
Sequence of ufc1_human UFC1, Q9Y3C8 (Q9Y3C8 whole entry): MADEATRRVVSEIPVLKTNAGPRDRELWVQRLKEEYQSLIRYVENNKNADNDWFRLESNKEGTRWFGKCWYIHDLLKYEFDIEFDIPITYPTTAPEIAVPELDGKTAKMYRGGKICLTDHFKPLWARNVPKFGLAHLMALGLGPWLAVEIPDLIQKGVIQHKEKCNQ

| effect of a mutation on the interaction | Variant |
| --- | --- |
| decreasing interaction strength | I267A;W269A |
